Among the data in patent US20220332804A1 (CSL INNOVATION, published 2022) are Kd values, retold here.

Holding throughout (assay): SPR, antibody captured, C2 as analyte;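 also: biacore SPR at 37 °C, anti-C2 mAbs captured via goat anti-human IgG on CM5 chips, double-referenced sensorgrams fit to a 1:1 kinetic or steady-state model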
(In general: SPR reads the build-up and loss of mass on a sensor chip optically.)

One experiment addresses T1, human C2 G414A (human, UniProt P06681 21-752).
T1 sequence: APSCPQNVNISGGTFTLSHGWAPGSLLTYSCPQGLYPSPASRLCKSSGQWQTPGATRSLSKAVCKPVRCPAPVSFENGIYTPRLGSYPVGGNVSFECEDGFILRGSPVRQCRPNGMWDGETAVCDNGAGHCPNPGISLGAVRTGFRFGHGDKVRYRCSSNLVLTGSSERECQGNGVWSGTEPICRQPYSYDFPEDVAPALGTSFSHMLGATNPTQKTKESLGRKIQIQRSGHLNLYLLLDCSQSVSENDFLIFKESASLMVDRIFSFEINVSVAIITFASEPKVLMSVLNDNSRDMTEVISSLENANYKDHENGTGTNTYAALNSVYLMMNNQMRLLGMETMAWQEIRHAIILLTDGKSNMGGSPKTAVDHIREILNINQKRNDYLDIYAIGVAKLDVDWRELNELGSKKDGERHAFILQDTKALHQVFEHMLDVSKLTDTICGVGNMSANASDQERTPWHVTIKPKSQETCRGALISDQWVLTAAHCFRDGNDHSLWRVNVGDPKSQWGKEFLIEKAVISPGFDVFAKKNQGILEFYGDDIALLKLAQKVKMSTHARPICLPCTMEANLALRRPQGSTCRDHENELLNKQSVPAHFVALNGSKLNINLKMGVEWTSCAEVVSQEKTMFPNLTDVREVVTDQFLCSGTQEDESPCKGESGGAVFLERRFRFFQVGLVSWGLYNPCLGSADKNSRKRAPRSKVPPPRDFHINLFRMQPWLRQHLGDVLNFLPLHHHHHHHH

Another experiment deals with T2, human C2 D417A (human, UniProt P06681 21-752).
T2 sequence: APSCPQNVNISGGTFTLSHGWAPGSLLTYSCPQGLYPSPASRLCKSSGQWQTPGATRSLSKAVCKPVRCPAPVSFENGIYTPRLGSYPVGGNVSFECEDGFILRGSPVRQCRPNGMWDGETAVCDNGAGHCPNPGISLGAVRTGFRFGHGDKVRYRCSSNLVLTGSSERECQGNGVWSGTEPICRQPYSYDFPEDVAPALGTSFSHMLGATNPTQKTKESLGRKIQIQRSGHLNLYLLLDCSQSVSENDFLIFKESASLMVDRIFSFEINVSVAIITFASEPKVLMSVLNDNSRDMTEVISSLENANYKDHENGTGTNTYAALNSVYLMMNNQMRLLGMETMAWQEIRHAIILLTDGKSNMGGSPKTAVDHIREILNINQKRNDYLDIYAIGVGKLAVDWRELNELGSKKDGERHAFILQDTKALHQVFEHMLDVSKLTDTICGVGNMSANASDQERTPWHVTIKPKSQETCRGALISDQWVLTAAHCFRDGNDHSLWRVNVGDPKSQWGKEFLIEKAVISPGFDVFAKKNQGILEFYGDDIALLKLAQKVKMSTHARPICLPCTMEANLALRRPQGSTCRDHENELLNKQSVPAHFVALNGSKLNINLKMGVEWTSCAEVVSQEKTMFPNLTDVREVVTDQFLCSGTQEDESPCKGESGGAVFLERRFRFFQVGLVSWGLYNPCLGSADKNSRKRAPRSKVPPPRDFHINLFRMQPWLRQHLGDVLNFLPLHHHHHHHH

The next experiment has as its target T3, human C2 Q489A (human, UniProt P06681 21-752).
T3 sequence: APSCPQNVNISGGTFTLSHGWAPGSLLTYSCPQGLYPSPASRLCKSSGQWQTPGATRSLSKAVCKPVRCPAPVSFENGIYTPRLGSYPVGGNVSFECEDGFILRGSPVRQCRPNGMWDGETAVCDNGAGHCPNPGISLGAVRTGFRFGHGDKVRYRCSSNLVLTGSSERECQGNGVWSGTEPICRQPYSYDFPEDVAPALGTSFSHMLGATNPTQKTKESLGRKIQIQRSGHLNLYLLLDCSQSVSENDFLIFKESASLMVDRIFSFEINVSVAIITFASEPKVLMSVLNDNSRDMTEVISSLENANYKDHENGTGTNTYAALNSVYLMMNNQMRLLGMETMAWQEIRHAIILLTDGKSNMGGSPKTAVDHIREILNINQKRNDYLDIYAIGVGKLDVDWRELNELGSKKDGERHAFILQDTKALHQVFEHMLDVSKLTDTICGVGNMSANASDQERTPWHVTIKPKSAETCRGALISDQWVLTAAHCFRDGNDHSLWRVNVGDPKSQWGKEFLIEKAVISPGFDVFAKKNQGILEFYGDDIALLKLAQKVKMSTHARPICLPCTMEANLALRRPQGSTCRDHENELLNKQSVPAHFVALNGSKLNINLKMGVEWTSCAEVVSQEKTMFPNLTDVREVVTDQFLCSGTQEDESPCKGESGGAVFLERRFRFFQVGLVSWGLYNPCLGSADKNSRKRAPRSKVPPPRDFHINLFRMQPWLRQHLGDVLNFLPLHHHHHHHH

The target in the next experiment is T4, human C2 S456A (human, UniProt P06681 21-752).
T4 sequence: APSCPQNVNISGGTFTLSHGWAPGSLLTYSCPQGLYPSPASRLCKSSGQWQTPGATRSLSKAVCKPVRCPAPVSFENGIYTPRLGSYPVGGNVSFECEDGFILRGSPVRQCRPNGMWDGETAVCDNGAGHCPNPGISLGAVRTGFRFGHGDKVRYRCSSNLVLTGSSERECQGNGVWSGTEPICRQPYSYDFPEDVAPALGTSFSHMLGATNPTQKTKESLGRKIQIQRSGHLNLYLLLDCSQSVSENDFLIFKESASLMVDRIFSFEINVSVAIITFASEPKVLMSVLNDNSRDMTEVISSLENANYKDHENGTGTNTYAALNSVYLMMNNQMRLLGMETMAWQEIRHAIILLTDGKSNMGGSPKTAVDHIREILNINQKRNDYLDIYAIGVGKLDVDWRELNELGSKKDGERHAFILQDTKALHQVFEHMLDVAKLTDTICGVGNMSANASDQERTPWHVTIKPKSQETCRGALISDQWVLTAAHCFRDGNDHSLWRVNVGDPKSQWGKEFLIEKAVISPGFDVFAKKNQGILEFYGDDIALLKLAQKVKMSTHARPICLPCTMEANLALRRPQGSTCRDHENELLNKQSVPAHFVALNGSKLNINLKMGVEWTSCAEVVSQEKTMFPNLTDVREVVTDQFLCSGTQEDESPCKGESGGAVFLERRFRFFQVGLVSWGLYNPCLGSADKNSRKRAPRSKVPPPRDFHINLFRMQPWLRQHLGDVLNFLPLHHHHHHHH

B1: RF16-226 (antibody, human IgG4 S228P, lambda)
heavy: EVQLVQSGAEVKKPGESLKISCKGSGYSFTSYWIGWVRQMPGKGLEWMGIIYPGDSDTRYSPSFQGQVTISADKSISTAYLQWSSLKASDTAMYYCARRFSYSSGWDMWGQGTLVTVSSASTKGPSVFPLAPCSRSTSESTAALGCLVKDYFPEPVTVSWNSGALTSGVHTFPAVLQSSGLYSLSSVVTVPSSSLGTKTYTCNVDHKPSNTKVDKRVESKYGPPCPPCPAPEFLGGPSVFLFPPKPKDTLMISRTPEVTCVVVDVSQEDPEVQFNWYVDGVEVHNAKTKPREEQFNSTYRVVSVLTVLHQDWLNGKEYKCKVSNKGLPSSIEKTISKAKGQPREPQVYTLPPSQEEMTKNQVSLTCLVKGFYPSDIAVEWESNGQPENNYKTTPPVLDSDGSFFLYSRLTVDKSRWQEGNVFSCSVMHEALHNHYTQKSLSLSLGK
light: SYELTQPPSVSVSPGQTARITCSGDALTSKYVAWYQQKSGLAPLLVIYEDTRRPSGIPAKFSGSSSGSVATLTISGAHGDDEADYYCYSTDASGHQRVFGGGTKLTVLSQPKAAPSVTLFPPSSEELQANKATLVCLISDFYPGAVTVAWKADGSPVKAGVETTKPSKQSNNKYAASSYLSLTPEQWKSHRSYSCQVTHEGSTVEKTVAPTECS
notes: pH-dependent anti-C2 antibody from a phage display library; also called WT
Turning to B1, the dissociation constant Kd (as a rule, the constant that tells how readily two partners part at equilibrium) in the experiment with human C2 G414A stood at 11.2 nM; with human C2 D417A, 17.9 nM; with human C2 Q489A, 104 nM; with human C2 S456A it was 71.8 nM.
